The target of one experiment is T1, human IL-36R-Fc (human, UniProt Q9HB29 20-335, limits assumed).
T1 construct: Bought reagent
T1 sequence (looked up): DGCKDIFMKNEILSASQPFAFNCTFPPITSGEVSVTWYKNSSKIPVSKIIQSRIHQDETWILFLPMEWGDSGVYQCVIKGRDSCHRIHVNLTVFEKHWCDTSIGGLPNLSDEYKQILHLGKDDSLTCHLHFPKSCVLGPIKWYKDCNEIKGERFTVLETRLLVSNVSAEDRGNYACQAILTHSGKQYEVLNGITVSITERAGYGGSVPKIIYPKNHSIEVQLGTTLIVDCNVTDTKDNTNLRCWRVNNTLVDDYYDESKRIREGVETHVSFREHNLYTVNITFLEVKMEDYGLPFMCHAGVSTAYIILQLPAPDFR
Description: MSD plate assay, IL-38 on plate-bound IL-36R-Fc, detected with biotinylated anti-IL-38 clone H127C. As for the experimental part:
(§1) Neutralization of human IL-38 binding to IL1RAPL1 or IL-36R. Human IL1RAPL1-Fc (Sino Biological, #10177-H02H) and human IL-36R-Fc (R&D Systems) were diluted in coating Buffer (50 mM Carbonate-Bicarbonate Buffer, pH 9.4) at final concentration of 0.5 μg/mL and coated on MSD high bind plates (MSD) for approximately two hours at RT. Recombinant human IL-38 (Adipogen) was diluted in assay Diluent (1% BSA, 0.1% Tween 20, in 1×PBS). For antibody testing, anti-IL-38 antibodies were pre-incubated with IL-38 for approximately one hour at RT. IL-38 or antibody-IL-38 mixture was transferred to pre-coated MSD plates and incubated for approximately two hours at RT. After washing, the MSD plate was incubated with biotinylated mouse anti-human IL-38 (clone H127C, Thermo Fisher) at final concentration of 100 ng/mL and Sulfo-Tag-Streptavidin (MSD) at final concentration of 100 ng/mL for 1 hour at RT. Binding of IL-38 to plate-bound IL1RAPL1-Fc or human IL-36R-Fc was detected using the Meso Sector S 600 plate reader. Data are plotted using GraphPad Prism version 9.0.1. Dose response curves were fitted with “[Inhibitor] vs. response—Variable slope (four parameters)” method.

The target in the next experiment is T2, Human IL1RAPL1-Fc (human, UniProt Q9NZN1 19-357, limits assumed).
T2 construct: Bought reagent
T2 sequence (looked up): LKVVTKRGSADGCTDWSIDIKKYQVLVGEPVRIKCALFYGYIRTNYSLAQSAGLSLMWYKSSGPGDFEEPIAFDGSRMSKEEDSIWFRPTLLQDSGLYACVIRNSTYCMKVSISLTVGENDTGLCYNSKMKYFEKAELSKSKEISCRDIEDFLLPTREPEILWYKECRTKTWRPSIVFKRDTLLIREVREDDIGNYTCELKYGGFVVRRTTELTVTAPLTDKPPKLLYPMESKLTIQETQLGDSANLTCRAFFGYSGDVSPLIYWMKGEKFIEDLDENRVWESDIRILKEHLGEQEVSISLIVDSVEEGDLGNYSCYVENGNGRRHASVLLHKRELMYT
Description: MSD plate assay, IL-38 on plate-bound IL1RAPL1-Fc, detected with biotinylated anti-IL-38 clone H127C. As for the experimental part:
as §1

Results on 1 molecule are retold here after US20240174741A1 (IMMUNOME, published 2024).

B1: human interleukin-38 (IL-38) (ligand, UniProt Q8WWZ1 1-152, looked up)
chain: MCSLPMARYYIIKYADQKALYTRDGQLLVGDPVADNCCAEKICILPNRGLARTKVPIFLGIQGGSRCLACVETEEGPSLQLEDVNIEELYKGGEEATRFTFFQSSSGSAFRLEAAAWPGWFLCGPAEPQQPVQLTKESEPSARTKFYFEQSW
notes: One entry is used for all sources of human IL-38; The Adipogen protein is called full length; also called IL1F10/IL38; IL1F10
On to B1, for which the binding result in the experiment with human IL-36R-Fc and with Human IL1RAPL1-Fc was “binds” in each case.
